{"source": "patent US20230273213A1", "about": "“PEPTIDE DESIGN AND GALECTIN-3 INHIBITORS” (City of Hope, priority 2020, published 2023)", "key": {"GST-Galectin-3": {"molecular_target": "T1, GST-Galectin-3 (Homo sapiens, UniProt P17931)", "T1 construct": "Full-length human GST-Galectin-3 (hereafter named GST-Gal3) in pGEX2T was previously described; made in house", "T1 sequence (P17931 2-250)": "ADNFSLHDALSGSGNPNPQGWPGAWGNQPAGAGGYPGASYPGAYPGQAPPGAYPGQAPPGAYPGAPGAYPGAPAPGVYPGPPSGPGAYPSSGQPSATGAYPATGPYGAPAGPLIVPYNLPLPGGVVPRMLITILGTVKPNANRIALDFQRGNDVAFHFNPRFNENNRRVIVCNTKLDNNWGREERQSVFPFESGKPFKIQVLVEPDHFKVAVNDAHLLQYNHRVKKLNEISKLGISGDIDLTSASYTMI", "test": "Galectin-3 mediated agglutination assay on LAX56 pre-B ALL cells", "type": "cell-based", "description": "Cells, culture and agglutination assay. LAX56 human pre-B ALL cells were routinely co-cultured with mitomycin-C inactivated OP9 stromal cells. These previously described primary leukemia cell grew directly out from a relapse bone marrow sample (36, 37). For agglutination assays, cells were harvested, washed once in α-MEM medium, resuspended in 10 ml X-VIVO 15 medium (Lonza) and incubated at 37° C. for 24 h remove the Galectin-3 produced by OP9 stromal cells. For the assay, ALL cells were resuspended in X-VIVO 15 medium at a concentration of 1×10^6/ml and seeded at 2×10^5/200 μl cells into wells. […] Peptides, if included, were preincubated for 5 minutes with the recombinant proteins and added at different concentrations as indicated in the figures. TD139 was purchased from MedChemExpress and used at 100 μM. Phase contrast images were taken after 1-2 hours. Agglutination was defined as aggregates containing >10 cells per cluster. 2-13 images from different areas were taken and evaluated for cell clusters per condition. Biological data were graphed with GraphPad Prism software (version8.3.1). Values represent mean±SEM of the number of aggregates scored per independent image.\nWe used two approaches to test this experimentally. Mutation of critical residues in that pocket could abolish binding to the IDR and the agglutination activity of Galectin-3. Also, a peptide could potentially fit in the shallow pocket and inhibit the IDR interaction. A classical test for carbohydrate-binding activity of a lectin including Galectin-3 is an agglutination assay (36, 38, 42). In this assay, recombinant Galectin-3 is tested for its ability to promote lattice formation by binding in a multivalent manner to glycoproteins located on the cell surface: when cell surface glycoprotein targets are located on different cells, carbohydrate binding combined with multimer formation causes cellular agglutination. […] Thus we used an agglutination assay in which recombinant Galectin-3 is added to patient-derived precursor B-acute lymphoblastic leukemia cells (pre-B ALL) as a readout for Galectin-3 lattice-forming activity."}, "GST-Gal3 L203A": {"molecular_target": "T2, GST-Gal3 L203A (Homo sapiens, UniProt P17931, L203A)", "T2 construct": "Full-length human GST-Galectin-3 (hereafter named GST-Gal3) in pGEX2T was previously described; made in house; host or cells: E. coli BL21(DE3)", "T2 sequence (P17931 whole entry L203A)": "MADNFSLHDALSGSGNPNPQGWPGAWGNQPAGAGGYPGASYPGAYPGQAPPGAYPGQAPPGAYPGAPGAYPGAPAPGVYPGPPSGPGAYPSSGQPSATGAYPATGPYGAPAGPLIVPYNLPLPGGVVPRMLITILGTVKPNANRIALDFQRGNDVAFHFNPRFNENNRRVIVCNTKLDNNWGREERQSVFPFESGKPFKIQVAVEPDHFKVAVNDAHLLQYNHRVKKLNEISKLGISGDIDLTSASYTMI", "test": "agglutination assay with GST-Gal3 L203A mutant", "type": "cell-based", "conditions": "LAX56 cells", "description": "(§1) Cells, culture and agglutination assay. LAX56 human pre-B ALL cells were routinely co-cultured with mitomycin-C inactivated OP9 stromal cells. These previously described primary leukemia cell grew directly out from a relapse bone marrow sample (36, 37). For agglutination assays, cells were harvested, washed once in α-MEM medium, resuspended in 10 ml X-VIVO 15 medium (Lonza) and incubated at 37° C. for 24 h remove the Galectin-3 produced by OP9 stromal cells. For the assay, ALL cells were resuspended in X-VIVO 15 medium at a concentration of 1×10^6/ml and seeded at 2×10^5/200 μl cells into wells. GST (12.5 μg/ml) or GST-Galectin-3 (25 μg/ml or 150 μg/ml, two different isolates) recombinant proteins were added in 300 μl X-VIVO 15 medium to duplicate wells. Peptides, if included, were preincubated for 5 minutes with the recombinant proteins and added at different concentrations as indicated in the figures. TD139 was purchased from MedChemExpress and used at 100 μM. Phase contrast images were taken after 1-2 hours. Agglutination was defined as aggregates containing >10 cells per cluster. 2-13 images from different areas were taken and evaluated for cell clusters per condition. Biological data were graphed with GraphPad Prism software (version8.3.1). Values represent mean±SEM of the number of aggregates scored per independent image.\n(§2) GST-Galectin-3 and mutants. […]"}, "GST-Gal3 L131A": {"molecular_target": "T3, GST-Gal3 L131A (Homo sapiens, UniProt P17931, L131A)", "T3 construct": "Full-length human GST-Galectin-3 (hereafter named GST-Gal3) in pGEX2T was previously described; made in house; host or cells: E. coli BL21(DE3)", "T3 sequence (P17931 whole entry L131A)": "as the sequence (P17931 whole entry L203A) above, with L131A, A203L counted along it", "test": "agglutination assay with GST-Gal3 L131A mutant", "type": "cell-based", "conditions": "LAX56 cells", "description": "as §1, §2"}, "Galectin-3 CTD": {"molecular_target": "T4, Galectin-3 CTD (Homo sapiens, UniProt P17931)", "T4 construct": "We generated a Galectin-3 CTD construct including amino acids 117-250; GST (N, cleaved yes); made in house; host or cells: E. coli BL21(DE3), M9 medium with 15N ammonium chloride", "T4 sequence (P17931 117-250)": "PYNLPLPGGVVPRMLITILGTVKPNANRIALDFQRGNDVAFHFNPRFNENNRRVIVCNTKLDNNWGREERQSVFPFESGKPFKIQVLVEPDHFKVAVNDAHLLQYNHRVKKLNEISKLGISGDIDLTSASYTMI", "test": "15N-1H HSQC NMR titration of Galectin-3 CTD with peptide-3", "type": "binding", "description": "Galectin-3 CTD construct for NMR. The Galectin-3 C-terminal domain construct was generated using the same methods described above for the mutants. The protein includes Galectin-3 amino acids P117-1250 as well as residual attached glycine and serine residues after thrombin cleavage. Single colonies were grown overnight in LB+ amp, collected by centrifugation then inoculated in M9 media with ammonium-^15N chloride (Sigma) and grown for 3-4 hours. After induction of protein production with IPTG for an 3-4 additional hrs, cells were harvested and suspended in 1% NP40, PI, PMSF, 1 mM DTT, 50 mM Tris-HCl, pH 7.5. Cells were disrupted by sonication. GST-Galectin-3 was bound to glutathione-agarose (Genscript Cat #L00207) overnight at 4° C. Beads were washed 4× in lysis buffer, then suspended in 50 mM Tris-HCl pH 7.5, 0.1 mM DTT and treated with 60 u thrombin/ml (Fisher Cytiva Thrombin Protease) for 16 hrs at RT. The supernatant containing Galectin-3 protein was treated with benzamidine sepharose (Sigma, HiTrap Benzamidine FF) to bind and remove thrombin. Protein was concentrated using an Amicon 3K filter and used in 20 mM potassium phosphate buffer pH 6.8, 0.1 mM DTT for NMR. Protein concentrations were determined by BCA.\nNMR. ^15N-^1H HSQC 700 MHz spectra were acquired with 20 μM Galectin-3 CTD [in 20 mM potassium phosphate buffer, pH 6.8, 0.1 mM DTT] and different molar ratios of added peptide-3 as indicated in FIG. 5. The chemical shift perturbation (CSP) 06 was calculated using the following equation: Δ\\ delta=√{square root over ((ΔωN^2+ΔωH^2)/2)}. The ΔωN and ΔωH are the nitrogen and proton chemical shift difference between free ^15N-CTD and that in the mixture with P3 peptide. Assignments are based on the Galectin-3 CTD NMR data of Ippel (25) and Umemoto (39). […] Because L135 and W181 patterns differ between Ippel and Umemoto, their assignments could not be unambiguously determined. […]"}, "[1]": {"conditions": "GST-Gal3, 1-2 hours, peptide preincubated 5 minutes with protein"}}, "data": [{"compound": "ANTPCGPYTHDCPVKR [Peptide-4, reference compound]", "values": [{"measurement": "effect on Galectin-3-mediated agglutination", "setting": "GST-Galectin-3; [1]", "value": "did not have an effect"}]}, {"compound": "N-terminal acetyl-ARAFGYPIYSY-C-terminal amide (Ac-ARAFGYPIYSY-NH2) [Peptide 2]", "values": [{"measurement": "effect on Galectin-3-mediated agglutination", "setting": "GST-Galectin-3; [1]", "value": "had no effect on agglutination"}]}, {"compound": "ACE-ARAMGYPGASY-NH2 (Ac-ARAMGYPGASY-NH2) [Peptide 1]", "values": [{"measurement": "effect on Galectin-3-mediated agglutination", "setting": "GST-Galectin-3; [1]", "value": "had no effect on agglutination"}]}, {"compound": "ACE-YYPGAYPRRYR-NH2 (Ac-YYPGAYPRRYR-NH2) [Peptide 3]", "values": [{"measurement": "inhibition of agglutination mediated by the L203A mutant", "setting": "GST-Gal3 L203A", "value": "could still be inhibited"}, {"measurement": "inhibition of agglutination mediated by the L131A mutant", "setting": "GST-Gal3 L131A", "value": "largely insensitive to inhibition"}, {"measurement": "effect on Galectin-3-mediated agglutination", "setting": "GST-Galectin-3; [1]", "value": "positive hit"}, {"measurement": "effect on Galectin-3-mediated agglutination", "setting": "GST-Galectin-3; GST-Gal3, 1-2 hours, peptide preincubated 5 minutes with protein, listed as P3", "value": "efficiently inhibits"}, {"measurement": "effect on Galectin-3-mediated agglutination", "setting": "GST-Galectin-3; GST-Gal3, 1-2 hours, peptide preincubated 5 minutes with protein, listed as YYPGAYPRRYR", "value": "inhibits Galectin-3 mediated agglutination"}, {"measurement": "effect on Galectin-3-mediated agglutination", "setting": "GST-Galectin-3; GST-Gal3, 1-2 hours, peptide preincubated 5 minutes with protein, listed as peptide 3", "value": "inhibits agglutination"}, {"measurement": "effect on Galectin-3-mediated agglutination", "setting": "GST-Galectin-3; GST-Gal3, 1-2 hours, peptide preincubated 5 minutes with protein, listed as peptide-3", "value": "clearly was inhibitory"}, {"measurement": "contacts with the CTD by NMR", "setting": "Galectin-3 CTD; 20 μM 15N CTD, up to 100:1 peptide:CTD", "value": "makes extensive contacts with amino acids in the CTD"}, {"measurement": "shift of S-face residues R186, K227 or Y221 upon exposure", "setting": "Galectin-3 CTD; data not shown", "value": "no shift"}, {"measurement": "chemical shift perturbation (CSP) of residue T248", "setting": "Galectin-3 CTD; one unit of RMSD", "value": "about 10.9 Hz"}]}, {"compound": "OC[C@H]1O[C@@H](S[C@@H]2O[C@H](CO)[C@H](O)[C@H](n3cc(-c4cccc(F)c4)nn3)[C@H]2O)[C@H](O)[C@@H](n2cc(-c3cccc(F)c3)nn2)[C@H]1O", "note": "[TD139, 3-deoxy-3-[4-(3-fluorophenyl)-1H-1,2,3-triazol-1-yl]-β-D-galactopyranosyl 3-deoxy-3-[4-(3-fluorophenyl)-1H-1,2,3-triazol-1-yl]-1-thio-β-D-galactopyranoside, reference compound]", "values": [{"measurement": "effect on Galectin-3-mediated agglutination", "setting": "GST-Galectin-3; GST-Gal3, 100 μM, positive control", "value": "clearly inhibited"}]}, {"compound": "PTHVTCKYCPAGNRDP [Peptide-5, scrambled negative control peptide described in the same study, reference compound]", "values": [{"measurement": "effect on Galectin-3-mediated agglutination", "setting": "GST-Galectin-3; [1]", "value": "did not have an effect"}]}]}
